Measurements: PMC5610937 (Journal of molecular biology, 2017)
Substitutions are numbered along the chain they refer to.

B1: chimeric rabbit/human anti-human ROR1 Fab ERR1-TOP43 (Fab, V domains shown)
VH: QSLEESGGRLVTPGTPLTLTCTVSGFSLSSYWMSWVRQAPGKGLEWIGAIYGSGNTYYASWAKGRFTISKTSTTVDLKITSPTTEDTATYFCARDVHSTATDLWGPGTLVTISS
VL: SYELTQLPSVSVSLGQTARITCGGNNIGSKAVNWYQQKPGLAPGLLIYNDDERPSGVPDRFSGSNSGDTATLTISGAQAGDEADYYCQLWDSSAGAYVFGGGTQLTVT
B2: chimeric rabbit/human anti-human ROR1 Fab ERR1-403 (Fab, V domains shown)
VH: QEQLKESGRGLVQPGGSLKLSCKASGFDFSGWYMTWVRQAPGKGLEWIGTIGTTKGRTYYASWVNGRFTISSNAQNTVDLQMNSLTAADRATYFCVRGSDYFDLWGPGTLVTISS
VL: B1 VL with N26S, N49D, D59A
B3: chimeric rabbit/human anti-human ROR1 Fab ERR1-TOP54 (Fab, V domains shown)
VH: QSLEESGGRLVTPGTPLTLTCTASGFSLSDYYMSWVRQAPGEGLEWIGTIYGGSGNTWYATWAKGRFTISKTSTTVDLKITSPTTEDTATYFCARDFGLSTGGLWGPGTLVTISS
VL: B1 VL with N26S, N49D, G95R, Y97F
B4: chimeric rabbit/human anti-human ROR1 Fab ERR1-301 (Fab, V domains shown)
VH: QEQLEESGGGLVTPGGSLTLTCTASGFTISTYHMSWVRQAPGKGLEWIGSIYAGSGSTYYASWVNGRFTISSNTTQNTVSLQMNSLTVADTATYFCARDHPSYGMDLWGPGTLVTVSS
VL: B1 VL with N26S, N49D, G63A, G80E, G95V
B5: chimeric rabbit/human anti-human ROR1 Fab ERR1-TOP15 (Fab, V domains shown)
VH: QEQLVESGGRLVTPGGSLTLTCAASGFSPSSYWMSWVRQAPGKGLEWIGAIYVDSGSAYYASWAKSRFTISKTSSTTVDLKMTSLTTEDTAIYFCARDGWGSDVWGPGTLVTISS
VL: B1 VL with N26S, N33H, N49D
B6: chimeric rabbit/human anti-human ROR1 Fab ERR1-316 (Fab, V domains shown)
VH: QEQLEESGGRLVTPGTPLTLTCTASGFFLSSYYVSWVRQAPGKGLEWIGAIGTGGSAYYASWAKSRSTITRNTNLSTVTLKMTSLTAADTATYFCARDHPNYGMDLWGPGTLVTVSS
VL: B1 VL with N26S, N49D, A94T, V98A
B7: chimeric rabbit/human anti-human ROR2 Fab XBR2-433 (Fab, V domains shown)
VH: QSVKESEGGLFKPTDTLTLTCTVSGFSLSTYGVSWVRQAPGNGLEWIGAIGSSGSANYASWAKDRSTITRNTNLNTVTLKMTSLTAADTATYFCARDGYYSSGWGPYFNIWGPGTLVTISS
VL: SFVLTQPASVQVNLGQTVSLTCTADTLSRSYASWYQQKPGQAPVLLIYRDTSRPSGVPDRFSGSSSGNTATLTISGAQAGDEADYYCATSGGSGSNPQYVFGGGTQLTVT
B8: chimeric rabbit/human anti-human ROR2 Fab ERR2-TOP35 (Fab, V domains shown)
VH: B7 VH with T14M, S29N, I50V, S55A, A56T, D64S, L74E, N109S, I119V
VL: SFVLTQPASVQVNLGQTVSLTCTAETLRSSYASWYQQKPGQAPVLLIYRDTSRPSGVPDRFSGSSSGNTATLTISGAQAGDEADYYCATSDGSGSRYYVFGGGTQLTVT
B9: chimeric rabbit/human anti-human ROR1 Fab ERR1-306 (Fab, V domains shown)
VH: QEQLKESGGGLVQPGGSLKLSCKASGFDLSNYGVSWVRQAPGKGLEWIGYIDPTFDYTYYASWVNGRFSISRENTQNTVSLQINSLTPADTATYFCARWVYGVDDYGDGNWLDLWGQGTLVTISS
VL: QFVLTQSPSVSAALGASAKLTCTLSSAHKTYTIDWYQQQQGEAPRYLMELKSDGSYTKGTGVPDRFSGSSSGADRYLIIPSVQADDEADYYCGTDYSGGYVFGGGTQLTVT
B10: chimeric rabbit/human anti-human ROR2 Fab XBR2-TOP72 (Fab, V domains shown)
VH: QEQLEESGGRLVTPGTPLTLTCTVSGIDLSSNAMSWVRQAPGKGLEYVGFINGGGGVHYASWARGRFTISKTSTTVDLKITSPTTEDTATYFCARAGTTYYTSFNLWGPGTLVTISS
VL: QFVLTQSPSASAALGSSAKLTCTLSSAHKTYTIAWYQQQQGEAPRLLMMLRTDGSYTKGTGVPDRFSGSSSGADRYLIISSVQADDAAGYYCGADYSGGYVFGGGTQLTVT
B11: chimeric rabbit/human anti-human ROR2 Fab ERR2-302 (Fab, V domains shown)
VH: QKQLVESGGGLVKPGGSLTLTCTVSGFSLSSYAIGWVRQAPGNGLEWIGIINSYGSTYYASWAKSRSTITRNTNLNTVTLKMTSLTAADTATYFCARSPYGYVSAWGYHRLDLWGQGTLVTISS
VL: SYELTQLPSVSVSLGQTARITCGGASIGSKVVHWYQQKPGLAPGLLIYDDDERPSGVPDRFSGSNSGDTATLTISGAQAGDEAEYYCQLWDGSDVVFGGGTQLTVT
B12: chimeric rabbit/human anti-human ROR1 Fab ERR1-TOP4 (Fab, V domains shown)
VH: QSVEESGGRLVTPGTPLTLTCTASGIDLSRYAVNWVRQAPGKGLEWIGVISGSGTTYYASWAKGRFTISKTSTTVDLKITSPTTEDTATYFCARGWATDGIFDYDDTFNLWGPGTLVTVSS
VL: B11 VL with A25D, G28E, V31A, I47V, D49N, E84D, D94A, V95Y
B13: chimeric rabbit/human anti-human ROR1 Fab ERR1-TOP22 (Fab, V domains shown)
VH: QSLEESGGRLVTPGTPLTLTCTVSGFSLSSYYMSWVRQAPGKGLEWIGTISSSGSTYYASWVKGRFTISKTSTTVDLKMTSLTTEDTATYFCARDLDYDMDLWGPGTLVTVSS
VL: B11 VL with A25N, V31A, D49N, E84D, G92N, S93N, D94A, V95A
B14: chimeric rabbit/human anti-human ROR1 Fab XBR1-402 (Fab, V domains shown)
VH: QEQQKESGGGLFKPTDTLTLTCTASGFDISSYYMSWVRQAPGNGLEWIGAIGISGNAYYASWAKSRSTITRNTNLNTVTLKMTSLTAADTATYFCARDHPTYGMDLWGPGTLVTVSS
VL: B11 VL with G23E, A25N, S26N, V31A, E84D, L89V, G92S, D94A, V95Y
B15: chimeric rabbit/human anti-human ROR1 Fab ERR1-409 (Fab, V domains shown)
VH: QEQLVESGGRLVTPGGSLTLTCTASGFSLSSYYMGWVRQAPGKGLEWIGTIYGGSGSTWYASWVKGRFTISKTSTAVDLKITSLTTEDTATYFCARSYPGWTTEPYFDIWGPGTLVTVSS
VL: QFVLTQPQSVSGSLGQTVSISCNRDSGNIEDYYVHWYQQHPGKAPTTVIYNDDQRPSGVPDRFSGSIDSTSNSASLTITGLLAEDEADYYCLSSDSSAYVFGGGTQLTVT

Key:
[1] = biological target: human ROR2 ectopically and stably expressed on mouse pre-B cell line 63-12 (Homo sapiens (Human)., UniProt Q01974); test: flow cytometry on cells
Fc-hROR2 protein [2] = biological target: T1, Fc-hROR2 protein (Homo sapiens (Human)., UniProt Q01974); test: ELISA
[3] = biological target: human Fc fusion protein of the extracellular domain of mouse ROR1 (Mus musculus (Mouse)., UniProt Q9Z139); test: ELISA
Fc-hROR2 protein [4] = biological target: T1, Fc-hROR2 protein; test: SPR
[5] = biological target: human ROR1 ectopically and stably expressed on mouse pre-B cell line 63-12 (Homo sapiens (Human)., UniProt Q01973); test: flow cytometry on cells
[6] = biological target: mouse ROR2 extracellular domains displayed on HEK293F cells (Mus musculus (Mouse)., UniProt Q9Z138); test: flow cytometry on cells
mouse ROR2 extracellular domains displayed on HEK293F cells, sequence (Q9Z138 34-403): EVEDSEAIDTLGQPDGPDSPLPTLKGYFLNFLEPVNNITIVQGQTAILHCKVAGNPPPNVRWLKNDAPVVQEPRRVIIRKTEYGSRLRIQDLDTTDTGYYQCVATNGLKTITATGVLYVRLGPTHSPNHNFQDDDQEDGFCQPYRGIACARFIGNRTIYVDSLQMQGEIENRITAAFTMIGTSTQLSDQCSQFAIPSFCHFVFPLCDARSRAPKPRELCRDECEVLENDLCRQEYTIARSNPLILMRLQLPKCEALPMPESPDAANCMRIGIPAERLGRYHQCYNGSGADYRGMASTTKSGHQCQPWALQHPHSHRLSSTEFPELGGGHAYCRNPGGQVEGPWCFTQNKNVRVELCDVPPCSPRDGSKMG

human Fc fusion protein of the extracellular domain of mouse ROR1, sequence (Q9Z139 30-406): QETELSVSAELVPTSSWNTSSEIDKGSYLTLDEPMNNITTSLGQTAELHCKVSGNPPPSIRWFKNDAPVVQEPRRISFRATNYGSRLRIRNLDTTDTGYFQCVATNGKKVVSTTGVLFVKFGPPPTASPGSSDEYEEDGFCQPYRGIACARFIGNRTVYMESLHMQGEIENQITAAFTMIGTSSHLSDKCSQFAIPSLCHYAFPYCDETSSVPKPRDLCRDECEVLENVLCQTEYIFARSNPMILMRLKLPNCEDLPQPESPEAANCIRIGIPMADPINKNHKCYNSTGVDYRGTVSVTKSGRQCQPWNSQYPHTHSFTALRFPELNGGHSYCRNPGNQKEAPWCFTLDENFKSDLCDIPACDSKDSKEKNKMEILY

Binder | binding result [1] | binding result (Fc-hROR2 protein [2]) | binding result [3] | Kd (Fc-hROR2 protein [4]) | binding result [5] | binding result [6]
B1 | no binding (tested: 10 μg/mL) | no binding (tested: 100 ng Fab in 50 μL) | no binding (tested: 100 ng Fab in 50 μL) |  |  | 
B2 | no binding (tested: 10 μg/mL) | no binding (tested: 100 ng Fab in 50 μL) | no binding (tested: 100 ng Fab in 50 μL) |  |  | 
B3 | no binding (tested: 10 μg/mL) | no binding (tested: 100 ng Fab in 50 μL) | no binding (tested: 100 ng Fab in 50 μL) |  |  | 
B4 | no binding (tested: 10 μg/mL) | no binding (tested: 100 ng Fab in 50 μL) | no binding (tested: 100 ng Fab in 50 μL) |  |  | 
B5 | no binding (tested: 10 μg/mL) | no binding (tested: 100 ng Fab in 50 μL) | no binding (tested: 100 ng Fab in 50 μL) |  |  | 
B6 | no binding (tested: 10 μg/mL) | no binding (tested: 100 ng Fab in 50 μL) | no binding (tested: 100 ng Fab in 50 μL) |  |  | 
B7 |  |  |  | 2280 nM | no binding | binds
B8 |  |  |  | 43.3 nM | no binding | binds
B9 | no binding (tested: 10 μg/mL) | no binding (tested: 100 ng Fab in 50 μL) | binds |  |  | 
B10 |  |  |  | 4150 nM | no binding | binds
B11 |  |  |  | 52.5 nM | no binding | binds
B12 | no binding (tested: 10 μg/mL) | no binding (tested: 100 ng Fab in 50 μL) | no binding (tested: 100 ng Fab in 50 μL) |  |  | 
B13 | no binding (tested: 10 μg/mL) | no binding (tested: 100 ng Fab in 50 μL) | binds |  |  | 
B14 | no binding (tested: 10 μg/mL) | no binding (tested: 100 ng Fab in 50 μL) | no binding (tested: 100 ng Fab in 50 μL) |  |  | 
B15 | no binding (tested: 10 μg/mL) | no binding (tested: 100 ng Fab in 50 μL) | no binding (tested: 100 ng Fab in 50 μL) |  |  | 
